From patent US20250002605A1 (WUHAN YZY BIOPHARMA, published 2025)

T1: human EpCAM on the cell surface (human, UniProt P16422 24-314)
T1 construct: whole, on cells; also called EpCAM of cells; HCT116 cells
T1 sequence (looked up): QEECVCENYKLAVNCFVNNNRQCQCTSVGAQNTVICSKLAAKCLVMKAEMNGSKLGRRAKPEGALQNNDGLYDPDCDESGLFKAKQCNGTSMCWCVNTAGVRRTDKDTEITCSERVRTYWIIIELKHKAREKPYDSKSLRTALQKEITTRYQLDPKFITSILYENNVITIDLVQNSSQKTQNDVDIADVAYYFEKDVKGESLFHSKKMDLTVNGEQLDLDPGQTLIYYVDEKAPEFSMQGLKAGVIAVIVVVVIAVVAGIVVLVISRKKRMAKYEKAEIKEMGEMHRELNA

T2: human EpCAM antigen (SB, Cat: 10694-H08H) (human, UniProt P16422 24-265)
T2 construct: Bought antigen immobilised on a CM5 chip
T2 sequence (looked up): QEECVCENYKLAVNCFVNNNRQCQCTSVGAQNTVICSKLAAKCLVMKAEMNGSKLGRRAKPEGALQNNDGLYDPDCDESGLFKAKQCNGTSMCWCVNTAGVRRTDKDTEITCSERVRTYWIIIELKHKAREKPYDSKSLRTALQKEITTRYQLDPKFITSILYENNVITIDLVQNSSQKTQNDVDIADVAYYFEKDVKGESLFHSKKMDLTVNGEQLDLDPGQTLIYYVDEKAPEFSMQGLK

B1: M701B (bispecific antibody, human IgG1, kappa)
light: ELVMTQSPSSLTVTAGEKVTMSCKSSQSLLNSGNQKNYLTWYQQKPGQPPKLLIYWASTRESGVPDRFTGSGSGTDFTLTISSVQAEDLAVYYCQNDYSYPLTFGAGTKLEIKRTVAAPSVFIFPPSDEQLKSGTASVVCLLNNFYPREAKVQWKVDNALQSGNSQESVTEQDSKDSTYSLSSTLTLSKADYEKHKVYACEVTHQGLSSPVTKSFNRGEC
heavy: EVQLLEQSGAELVRPGTSVKISCKASGYAFTNYWLGWVKQRPGHGLEWIGDIFPGSGNIHYNEKFKGKATLTADKSSSTAYMQLSSLTFEDSAVYFCARLRNWDEPMDYWGQGTTVTVSSASTKGPSVFPLAPSSKSTSGGTAALGCLVKDYFPEPVTVSWNSGALTSGVHTFPAVLQSSGLYSLSSVVTVPSSSLGTQTYICNVNHKPSNTKVDKKVEPKSCDKTHTCPPCPAPELLGGPSVFLFPPKPKDTLMISRTPEVTCVVVDVSHEDPEVKFNWYVDGVEVHNAKTKPREEQYNSTYRVVSVLTVLHQDWLNGKEYKCKVSNKALPAPIEKTISKAKGQPREPQVYTLPPSRDELTKNQVSLWCLVKGFYPSDIAVEWESNGQPENNYDTTPPVLDSDGSFFLYSDLTVDKSRWQQGNVFSCSVMHEALHNHYTQKSLSLSPGK
chain: QVQLVESGGGVVQPGRSLRLSCAASGFTFSTYAMNWVRQAPGKGLEWVARIRSKYNNYATYYADSVKDRFTISRDDSKNTLYLQMNSLRAEDTAVYYCARHGNFGNSYVSWFAYWGQGTLVTVSSGGGGSGGGGSGGGGSQTVVTQEPSLTVSPGGTVTLTCRSSTGAVTTSNYANWVQQKPGQAPRGLIGGTNKRAPGVPARFSGSLLGGKAALTLSGVQPEDEAEYYCALWYSNLWVFGGGTKVEIKGAAAEPKSCDKTHTCPPCPAPELLGGPSVFLFPPKPKDTLMISRTPEVTCVVVDVSHEDPEVKFNWYVDGVEVHNAKTKPREEQYNSTYRVVSVLTVLHQDWLNGKEYKCKVSNKALPAPIEKTISKAKGQPREPQVYTLPPSRDELTKNQVSLTCRVKGFYPSDIAVEWESNGQPENNYKTTPPVLKSDGSFFLASKLTVDKSRWQQGNVFSCSVMHEALHNHYTQKSLSLSPGK
notes: YBODY format; also called bispecific antibody M701B
B2: M701K (bispecific antibody, human IgG1, kappa)
light: B1 light
heavy: EVQLLEQSGAELVRPGTSVKISCKASGYAFTNYWLGWVKQRPGHGLEWIGDIFPGSGNIHYNEKFKGKATLTADKSSSTAYMQLSSLTFEDSAVYFCARLRNWDEPMDYWGQGTTVTVSSASTKGPSVFPLAPSSKSTSGGTAALGCLVKDYFPEPVTVSWNSGALTSGVHTFPAVLQSSGLYSLSSVVTVPSSSLGTQTYICNVNHKPSNTKVDKKVEPKSCDKTHTCPPCPAPPVAGPSVFLFPPKPKDTLMISRTPEVTCVVVDVSHEAPEVQFNWYVDGVEVHNAKTKPREEQFNSTFRVVSVLTVVHQDWLNGKEYKCKVSNKGLPAPIEKTISKTKGQPREPQVYTLPPCRDELTKNQVSLWCLVKGFYPSDIAVEWESNGQPENNYKTTPPVLDSDGSFFLYSKLTVDKSRWQQGNVFSCSVMHEALHNHYTQKSLSLSPGK
chain: QVQLVESGGGVVQPGRSLRLSCAASGFTFSTYAMNWVRQAPGKGLEWVARIRSKYNNYATYYADSVKDRFTISRDDSKNTLYLQMNSLRAEDTAVYYCARHGNFGNSYVSWFAYWGQGTLVTVSSGGGGSGGGGSGGGGSQTVVTQEPSLTVSPGGTVTLTCRSSTGAVTTSNYANWVQQKPGQAPRGLIGGTNKRAPGVPARFSGSLLGGKAALTLSGVQPEDEAEYYCALWYSNLWVFGGGTKVEIKGAAAEPKSCDKTHTCPPCPAPPVAGPSVFLFPPKPKDTLMISRTPEVTCVVVDVSHEAPEVQFNWYVDGVEVHNAKTKPREEQFNSTFRVVSVLTVVHQDWLNGKEYKCKVSNKGLPAPIEKTISKTKGQPREPQVCTLPPSRDELTKNQVSLSCAVKGFYPSDIAVEWESNGQPENNYKTTPPVLDSDGSFFLVSKLTVDKSRWQQGNVFSCSVMHEALHNHYTQKSLSLSPGK
notes: YBODY format; also called bispecific antibody M701K

How the values were obtained:
[1] = target: T1, human EpCAM on the cell surface; test: flow cytometry (FACS) on HCT116 cells, PE anti-human IgG Fc detection
[2] = target: T3, human CD3 antigen (SB, Cat: CT038-H2508H) (human, UniProt P07766 23-126; P04234 22-105); test: SPR (Biacore T200), CD3 antigen amine-coupled on CM5, antibody as analyte, 1:1 fit
[3] = target: T2, human EpCAM antigen (SB, Cat: …); test: SPR (Biacore T200), antigen amine-coupled on CM5, antibody as analyte, 1:1 fit; D0 sample
[4] = target: T3, human CD3 antigen (SB, Cat: …); test: as above
[5] = target: T2, human EpCAM antigen (SB, Cat: …); test: SPR (Biacore T200), antigen amine-coupled on CM5, antibody as analyte, 1:1 fit; D14 sample after 14 days at 40 C
[6] = target: T3, human CD3 antigen (SB, Cat: …); test: as above
CD3 on Jurkat cells [7] = test: cell-based or functional assay
[8] = target: T1, human EpCAM on the cell surface; test: cell-based or functional assay
CD3 on Jurkat cells [9] = test: cell-based or functional assay; remark: listed apart in the source
[10] = target: T1, human EpCAM on the cell surface; test: cell-based or functional assay; remark: listed apart in the source

Row | Binder | EC50 [1] [nM] | Kd [2] [nM] | Kd [3] [nM] | Kd [4] [nM] | Kd [5] [nM] | Kd [6] [nM] | EC50 (read off the curve), cell bridging of HCT116 and Jurkat [panel C] (CD3 on Jurkat cells [7]) [ng/mL] | EC50 (read off the curve), cell bridging of HCT116 and Jurkat [panel C] [8] [ng/mL] | cell bridging of HCT116 and Jurkat cells (CFSE/PKH26 double-positive cells, flow cytometry) (CD3 on Jurkat cells [9]) | cell bridging of HCT116 and Jurkat cells (CFSE/PKH26 double-positive cells, flow cytometry) [10]
1 | B1 | 3.72 | 28.3 | 20 | 28.3 | 22.6 | 31.5 | ~10 | ~10 | ~40 % of the total PKH26-positive cells | ~40 % of the total PKH26-positive cells
2 | B2 | 5.65 | 28.8 | 21.1 | 28.8 | 22.6 | 30.6 | – | – | – | –
